What all share (test): two-hybrid library CCNG1;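 also: natural log of median RNA to DNA barcode read ratio; higher means stronger binding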
One test concerns the target T1, P9A.
T1 chain: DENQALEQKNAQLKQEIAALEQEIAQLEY

A further test deals with T2, P5A.
T2 chain: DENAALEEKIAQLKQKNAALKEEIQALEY

In the next test the target is T3, P6A.
T3 chain: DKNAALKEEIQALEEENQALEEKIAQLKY

The next test addresses T4, P1A.
T4 chain: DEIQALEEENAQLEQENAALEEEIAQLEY

In another test the target is T5, P3A.
T5 chain: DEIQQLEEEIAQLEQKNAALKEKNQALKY

A further test deals with T6, P4A.
T6 chain: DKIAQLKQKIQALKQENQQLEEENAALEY

Another test has as its target T7, P8A.
T7 chain: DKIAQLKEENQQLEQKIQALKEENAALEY

The target in the next test is T8, P2A.
T8 chain: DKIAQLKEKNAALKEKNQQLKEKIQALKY

A further test concerns the target T9, P7A.
T9 chain: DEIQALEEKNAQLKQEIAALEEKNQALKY

The target in a further test is T10, O6-bA.
T10 chain: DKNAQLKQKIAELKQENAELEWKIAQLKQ

The next test has as its target T11, O15-bA.
T11 chain: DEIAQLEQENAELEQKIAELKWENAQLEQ

The next test has as its target T12, O8-bA.
T12 chain: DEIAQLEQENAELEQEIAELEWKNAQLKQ

The next test concerns the target T13, O12-bA.
T13 chain: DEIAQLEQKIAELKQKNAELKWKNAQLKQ

In the next test the target is T14, O4-bA.
T14 chain: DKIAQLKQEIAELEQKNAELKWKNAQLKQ

For a further test, the target named is T15, O5-bA.
T15 chain: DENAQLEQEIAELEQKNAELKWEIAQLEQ

A further test deals with T16, O16-bA.
T16 chain: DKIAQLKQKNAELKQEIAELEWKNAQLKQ

In a further test the target is T17, O2-bA.
T17 chain: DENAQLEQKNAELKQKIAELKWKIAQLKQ

Another test concerns the target T18, O11-bA.
T18 chain: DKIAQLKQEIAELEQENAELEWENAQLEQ

In another test the target is T19, O13-bA.
T19 chain: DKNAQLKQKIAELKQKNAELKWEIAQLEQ

The target of the next test is T20, O9-bA.
T20 chain: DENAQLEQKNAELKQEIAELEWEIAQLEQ

Another test addresses T21, O7-bA.
T21 chain: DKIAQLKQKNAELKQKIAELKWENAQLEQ

Another test concerns the target T22, O3-bA.
T22 chain: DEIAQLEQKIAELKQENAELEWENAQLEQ

For the next test, the target named is T23, O14-bA.
T23 chain: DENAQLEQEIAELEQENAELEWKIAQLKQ

Another test deals with T24, 4H2438-bN.
T24 chain: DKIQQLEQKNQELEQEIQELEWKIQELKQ

A further test deals with T25, 4H492-bN.
T25 chain: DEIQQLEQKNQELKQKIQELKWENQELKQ

For the next test, the target named is T26, 4H932-bN.
T26 chain: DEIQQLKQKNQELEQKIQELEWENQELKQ

In the next test the target is T27, O11-bN.
T27 chain: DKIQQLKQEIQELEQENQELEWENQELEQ

Another test has as its target T28, 4H477-bN.
T28 chain: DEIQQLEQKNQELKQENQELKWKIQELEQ

A further test concerns the target T29, 4H3057-bN.
T29 chain: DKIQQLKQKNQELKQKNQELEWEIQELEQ

The next test concerns the target T30, 4H3354-bN.
T30 chain: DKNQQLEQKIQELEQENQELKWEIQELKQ

The target of the next test is T31, 4H2162-bN.
T31 chain: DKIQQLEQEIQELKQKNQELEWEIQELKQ

The next test concerns the target T32, 4H56-bN.
T32 chain: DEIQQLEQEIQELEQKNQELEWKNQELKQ

For a further test, the target named is T33, 4H741-bN.
T33 chain: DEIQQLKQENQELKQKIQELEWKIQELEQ

In another test the target is T34, 4H3277-bN.
T34 chain: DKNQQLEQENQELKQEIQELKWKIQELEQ

The target of a further test is T35, 4H754-bA.
T35 chain: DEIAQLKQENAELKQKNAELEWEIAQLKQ

In another test the target is T36, 4H2473-bN.
T36 chain: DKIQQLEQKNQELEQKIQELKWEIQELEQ

For the next test, the target named is T37, 4H2915-bN.
T37 chain: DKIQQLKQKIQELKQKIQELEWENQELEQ

The target of a further test is T38, 4H348-bN.
T38 chain: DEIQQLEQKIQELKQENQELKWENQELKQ

The next test addresses T39, 4H40-bN.
T39 chain: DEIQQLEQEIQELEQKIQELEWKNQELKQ

In a further test the target is T40, 4H2717-bN.
T40 chain: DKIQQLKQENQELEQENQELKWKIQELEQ

A further test addresses T41, 4H3297-bN.
T41 chain: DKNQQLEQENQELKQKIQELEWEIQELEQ

Another test deals with T42, 4H2223-bN.
T42 chain: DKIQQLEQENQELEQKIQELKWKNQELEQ

For the next test, the target named is T43, 4H2692-bN.
T43 chain: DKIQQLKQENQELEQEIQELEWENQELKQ

In the next test the target is T44, 4H2253-bN.
T44 chain: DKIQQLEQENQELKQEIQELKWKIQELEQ

In a further test the target is T45, 4H2585-bN.
T45 chain: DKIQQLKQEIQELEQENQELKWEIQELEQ

The target of another test is T46, 4H2143-bN.
T46 chain: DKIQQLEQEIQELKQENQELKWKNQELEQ

For a further test, the target named is T47, 4H2760-bN.
T47 chain: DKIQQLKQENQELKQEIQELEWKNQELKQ

For another test, the target named is T48, 4H349-bN.
T48 chain: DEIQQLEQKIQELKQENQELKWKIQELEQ

A further test deals with T49, 4H2444-bN.
T49 chain: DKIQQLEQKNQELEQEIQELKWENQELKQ

Another test concerns the target T50, 4H3364-bN.
T50 chain: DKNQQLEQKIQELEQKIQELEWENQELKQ

For the next test, the target named is T51, 4H2931-bN.
T51 chain: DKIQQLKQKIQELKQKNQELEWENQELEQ

The target of the next test is T52, 4H949-bN.
T52 chain: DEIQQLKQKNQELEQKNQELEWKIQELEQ

In the next test the target is T53, 4H235-bN.
T53 chain: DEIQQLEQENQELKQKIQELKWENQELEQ

In a further test the target is T54, 4H2233-bN.
T54 chain: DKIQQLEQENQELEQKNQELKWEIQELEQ

For another test, the target named is T55, 4H796-bN.
T55 chain: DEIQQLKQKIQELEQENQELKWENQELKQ

Another test has as its target T56, 4H264-bN.
T56 chain: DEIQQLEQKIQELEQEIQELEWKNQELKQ

In another test the target is T57, 4H2518-bN.
T57 chain: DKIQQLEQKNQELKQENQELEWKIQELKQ

Another test deals with T58, 4H2588-bN.
T58 chain: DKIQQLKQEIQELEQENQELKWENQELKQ

In the next test the target is T59, 4H3381-bN.
T59 chain: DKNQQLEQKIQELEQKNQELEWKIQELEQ

Another test concerns the target T60, 4H2503-bN.
T60 chain: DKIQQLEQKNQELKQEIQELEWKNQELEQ

The target of a further test is T61, 4H730-bN.
T61 chain: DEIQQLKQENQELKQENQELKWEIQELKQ

The next test concerns the target T62, 4H2859-bN.
T62 chain: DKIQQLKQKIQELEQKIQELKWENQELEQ

In a further test the target is T63, 4H3041-bN.
T63 chain: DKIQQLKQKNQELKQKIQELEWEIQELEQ

The target in the next test is T64, 4H570-bN.
T64 chain: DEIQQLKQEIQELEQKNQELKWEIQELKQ

The target in a further test is T65, 4H2839-bN.
T65 chain: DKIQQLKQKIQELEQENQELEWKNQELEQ

For the next test, the target named is T66, 4H319-bN.
T66 chain: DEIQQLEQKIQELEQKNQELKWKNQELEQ

B1: P1A (peptide)
chain: DEIQALEEENAQLEQENAALEEEIAQLEY
For the molecule B1, the interaction score in the test with P9A is -1.68; with P5A, -2.1; in the test with P6A, -1.54; with P1A it was -1.11; with P3A, -1.69; with P4A, -0.87. The interaction score was -1 with P8A, 2.6 with P2A and -1.31 with P7A.

B2: O11-bA (peptide)
chain: DKIAQLKQEIAELEQENAELEWENAQLEQ
Regarding B2, the interaction score is -0.9 in the test with O6-bA; -0.971 in the test with O15-bA; -1.31 in the test with O8-bA; 2.25 in the test with O12-bA; 2.16 in the test with O4-bA; -0.78 with O5-bA. Also, the interaction score was -0.988 with O16-bA; -0.637 with O2-bA; -0.526 with O11-bA; -1.12 with O13-bA; -0.659 in the test with O9-bA; -0.686 with O7-bA. Moreover, the interaction score with O3-bA was -0.525; with O14-bA, -0.951.

B3: O12-bA (peptide)
chain: DEIAQLEQKIAELKQKNAELKWKNAQLKQ
As to B3, the interaction score is 0.643 with O6-bA; -0.225 in the test with O15-bA; 0.0711 with O8-bA; -1.51 with O12-bA; 1.27 in the test with O4-bA; -0.511 with O5-bA. Besides, the interaction score with O16-bA was -0.73; with O2-bA it was -0.795; with O13-bA, -0.478; with O9-bA, 1.04; with O7-bA, -0.372; in the test with O3-bA, 1.31. The molecule further registered an interaction score in the test with O14-bA of -0.435.

B4: 4H2143-bN (peptide)
chain: DKIQQLEQEIQELKQENQELKWKNQELEQ
As to B4, the interaction score in the test with 4H2438-bN was 0.267; with 4H492-bN, -0.438; with 4H932-bN it was 0.299; in the test with O11-bN it was -1.88; in the test with 4H477-bN, -0.266; with 4H3057-bN, -0.303. Further, the interaction score in the test with 4H3354-bN is -2.78; in the test with 4H2162-bN it was 0.354; with 4H56-bN, -0.695; in the test with 4H741-bN it was -0.465; with 4H3277-bN, -0.382; in the test with 4H754-bA, 0.173. Further, the interaction score was -0.596 with 4H2473-bN; 0.491 with 4H2915-bN; 0.129 with 4H348-bN; 0.442 in the test with 4H40-bN; 0.125 in the test with 4H2717-bN; -0.664 with 4H3297-bN. The interaction score in the test with 4H2223-bN was -0.138; with 4H2692-bN, -0.295; with 4H2253-bN, 0.598; with 4H2585-bN, -1.01; with 4H2143-bN, 0.45; with 4H2760-bN, -0.843. Further, the interaction score was 0.196 with 4H349-bN; -1.29 in the test with 4H2444-bN; -0.973 with 4H3364-bN; -0.53 with 4H2931-bN; -0.46 with 4H949-bN; 0.188 in the test with 4H235-bN. The interaction score is -1.37 in the test with 4H2233-bN; -0.462 with 4H796-bN; -0.0625 with 4H264-bN; -0.0822 with 4H2518-bN; -0.413 in the test with 4H2588-bN; -0.161 with 4H3381-bN. In addition, the interaction score in the test with 4H2503-bN was -0.374; with 4H730-bN, 0.137; with 4H2859-bN, -0.319; in the test with 4H3041-bN, 0.217; with 4H570-bN, -0.424; with 4H2839-bN it was -0.0339. In the test with 4H319-bN, this molecule yielded an interaction score of -1.38.

Source of the values: publication PMC10397247.
